Each block holds one molecule with its values, some of them ahead of it.
Tests used:
[1] = target: recombinant CCN2 (UniProt P29279); test: ELISA
[2] = target: Human CCN2 tagged with human Fc (human) (UniProt P29279); test: SPR
[3] = target: human CCN2 (R&D Systems) (human) (UniProt P29279); test: electrochemiluminescence assay
[4] = target: biotinylated human CCN2 (human) (UniProt P29279); test: competition electrochemiluminescence assay
[5] = target: biotinylated human CCN2 (Homo sapiens, UniProt P29279, biotin (sites not given)); test: competition electrochemiluminescence assay
Chain of biotinylated human CCN2 (P29279 27-349): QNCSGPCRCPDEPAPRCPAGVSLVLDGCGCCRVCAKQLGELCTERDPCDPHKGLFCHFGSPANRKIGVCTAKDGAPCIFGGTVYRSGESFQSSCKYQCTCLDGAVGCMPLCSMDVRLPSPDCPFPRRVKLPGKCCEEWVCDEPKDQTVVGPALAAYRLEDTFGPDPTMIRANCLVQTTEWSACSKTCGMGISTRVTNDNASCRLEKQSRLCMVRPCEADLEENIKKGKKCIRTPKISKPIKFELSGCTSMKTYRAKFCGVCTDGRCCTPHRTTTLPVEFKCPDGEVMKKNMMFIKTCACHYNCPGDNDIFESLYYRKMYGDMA

Chain of Human CCN2 tagged with human Fc (human) (P29279 27-349): as above
Chain of human CCN2 (R&D Systems) (human) (P29279 27-349): as above
Chain of biotinylated human CCN2 (human) (P29279 27-349): as above
Chain of recombinant CCN2 (P29279 27-349): as above

EC50 [1]: 0.39 nM
Kd [2]: 0.06 nM
fold higher affinity than pamrevlumab [2]: 364 fold
fold slower dissociation than pamrevlumab [2]: 169 fold
relative potency [%], post-nebulization [3]: 100%
IC50 [4]: 0.35 nM
Molecule: PRS-220 (designed binder)

IC50 [5]: 1.14 nM
B1: pamrevlumab (antibody, V domains shown)
VH: EGQLVQSGGGLVHPGGSLRLSCAGSGFTFSSYGMHWVRQAPGKGLEWVSGIGTGGGTYSTDSVKGRFTISRDNAKNSLYLQMNSLRAEDMAVYYCARGDYYGSGSFFDCWGQGTLVTVSS
VL: DIQMTQSPSSLSASVGDRVTITCRASQGISSWLAWYQQKPEKAPKSLIYAASSLQSGVPSRFSGSGSGTDFTLTISSLQPEDFATYYCQQYNSYPPTFGQGTKLEIK

Source: paper PMC11971276 (Nature Communications, 2025)
